Substitutions are numbered along the chain they refer to. Numbers in names are those of the source.

The target in one assay is T1, GST-ATG8A, Q8LEM4.
T1 chain: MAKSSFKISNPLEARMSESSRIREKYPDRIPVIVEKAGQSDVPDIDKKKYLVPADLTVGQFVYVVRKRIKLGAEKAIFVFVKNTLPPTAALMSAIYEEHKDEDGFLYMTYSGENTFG
As to the kind of experiment: microscopy-based protein-protein interaction assay (on-bead binding, confocal). The following applies: chain shown with the change; 1 μM C53 protein; glutathione-sepharose beads with GST-ATG8A; parent: est. 1.0; read off a plot.

Assay [1] addresses GST-GABARAP (human), O95166. Briefly: microscopy-based on-bead protein-protein interaction assay. The following applies: remark: other sources report otherwise.

GST-GABARAP (human), O95166, sequence (O95166 whole entry): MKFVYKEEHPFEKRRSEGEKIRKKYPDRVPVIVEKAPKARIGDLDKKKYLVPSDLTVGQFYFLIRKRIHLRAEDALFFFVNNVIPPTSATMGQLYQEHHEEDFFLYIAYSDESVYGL

B1: mCh-HsC53, Q96JB5 IDWG267WDGI; IDWG292WDGI; IDWG310WDGI (protein)
chain: MEDHQHVPIDIQTSKLLDWLVDRRHCSLKWQSLVLTIREKINAAIQDMPESEEIAQLLSGSYIHYFHCLRILDLLKGTEASTKNIFGRYSSQRMKDWQEIIALYEKDNTYLVELSSLLVRNVNYEIPSLKKQIAKCQQLQQEYSRKEEECQAGAAEMREQFYHSCKQYGITGENVRGELLALVKDLPSQLAEIGAAAQQSLGEAIDVYQASVGFVCESPTEQVLPMLRFVQKRGNSTVYEWRTGTEPSVVERPHLEELPEQVAEDAWDGIDFGVEAVSEGTDSGISAEAAGWDGIIFPESDSKDPGGDGWDGIDDAVALQITVLEAGTQAPEGVARGPDALTLLEYTETRNQFLDELMELEIFLAQRAVELSEEADVLSVSQFQLAPAILQGQTKEKMVTMVSVLEDLIGKLTSLQLQHLFMILASPRYVDRVTEFLQQKLKQSQLLALKKELMVQKQQEALEEQAALEPKLDLLLEKTKELQKLIEADISKRYSGRPVNLMGTSL
Turning to B1, in the assay with GST-ATG8A, Q8LEM4, the response (normalized fluorescence) was found to be 1.2.

B2: mCh-HsC53^sAIM (W269A, W294A, W312A), Q96JB5 1-506 (natural protein)
chain: B1 chain with W267I, G269A, I270G, W292I, G294A, I295G, W310I, G312A, I313G
As for B2, the percent less recruited than the wild type in assay [1] turned out to be 78%.

The values are drawn from publication PMC10183829, “Shuffled ATG8 interacting motifs form an ancestral bridge between UFMylation and autophagy” (The EMBO Journal, 2023).
